According to US20250074974A1 (KANAPH THERAPEUTICS, published 2025):

Target: T1, human VEGF165 protein (human, UniProt P15692-4 27-191)
T1 construct: Immobilised on the ELISA plate
Experiment: ELISA, human VEGF165 immobilised on plate
From the text: Next, the anti-human immunoglobulin G antibody and the anti-horseradish peroxidase (HRP) antibody were sequentially allowed to bind.

T1 sequence (P15692 other isoform, or with tags, fused parts or gaps limits assumed): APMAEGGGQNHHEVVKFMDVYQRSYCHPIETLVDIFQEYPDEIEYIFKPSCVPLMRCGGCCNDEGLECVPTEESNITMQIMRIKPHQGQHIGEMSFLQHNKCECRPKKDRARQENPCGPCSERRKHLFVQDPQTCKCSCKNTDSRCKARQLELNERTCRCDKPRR

Binder | binding result
PRO242 (bispecific antibody, IgG1, Purified as a fusion protein dimer) SDTGRPFVEMYSEIPEIIHMTEGRELVIPCRVTSPNITVTLKKFPLDTLIPDGKRIIWDSRKGFIISNATYKEIGLLTCEATVNGHLYKTNYLTHRQTNTIIDVVLSPSHGIELSVGEKLVLNCTARTELNVGIDFNWEYPSSKHQHKKLVNRDLKTQSGSEMKKFLSTLTIDGVTRSDQGLYTCAASSGLMTKKNSTFVRVHEKGGGGSDKTHTCPPCPAPEAAGGPSVFLFPPKPKDTLMISRTPEVTCVVVAVSHEDPEVKFNWYVDGVEVHNAKTKPREEQYGSTYRVVSVLTVLHQDWLNGKEYKCKVSNKALPAPIEKTISKAKGQPREPQVYTLPPSREEMTKNQVSLTCLVKGFYPSDIAVEWESNGQPENNYKTTPPVLDSDGSFFLYSKLTVDKSRWQQGNVFSCSVMHEALHNHYTQKSLSLSPGGGGGSGGGGSGGGGSEVQLVESGGGLVQPGGSLRLSCAASGFSFTSSSVSWVRQAPGKGLEWVGLIYPYNGFNYYADSVKGRFTISADTSKNTAYLQMNSLRAEDTAVYYCARNALYGSGGYYAMDYWGQGTLVTVSSGGGGSGGGGSGGGGSGGGGSDIQMTQSPSSLSASVGDRVTITCRASQDVSTAVAWYQQKPGKAPKLLIYSASFLYSGVPSRFSGSGSGTDFTLTISSLQPEDFATYYCQQSYATLPTFEQGTKVEIK | binds
PRO237 (bispecific antibody, human IgG1, kappa, L234A L235A, N297G, Purified as a fusion protein dimer) heavy: EVQLVQSGAEVKKPGASVKVSCKASGYTFTGYYINWVRQAPGQGLEWMGIISPNQGTTGYAQKFQGRVTMTRDTSISTAYMELSSLRSEDTAVYYCARGNYDHLDYWGQGTLVTVSSASTKGPSVFPLAPSSKSTSGGTAALGCLVKDYFPEPVTVSWNSGALTSGVHTFPAVIQSSGLYSLSSVVTVPSSSLGTQTYICNVNHKPSNTKVDKRVEPKSCDKTHTCPPCPAPEAAGGPSVFLFPPKPKDTLMISRTPEVTCVVVAVSHEDPEVKFNWYVDGVEVHNAKTKPREEQYGSTYRVVSVLTVLHQDWLNGKEYKCKVSNKALPAPIEKTISKAKGQPREPQVYTLPPSREEMTKNQVSLTCLVKGFYPSDIAVEWESNGQPENNYKTTPPVLDSDGSFFLYSKLTVDKSRWQQGNVFSCSVMHEALHNHYTQKSLSLSPGGGGGSGGGGSSDTGRPFVEMYSEIPEIIHMTEGRELVIPCRVTSPNITVTLKKFPLDTLIPDGKRIIWDSRKGFIISNATYKEIGLLTCEATVNGHLYKTNYLTHRQTNTIIDVVLSPSHGIELSVGEKLVLNCTARTELNVGIDFNWEYPSSKHQHKKLVNRDLKTQSGSEMKKFLSTLTIDGVTRSDQGLYTCAASSGLMTKKNSTFVRVHEK light: not shown | binds
PRO238 (bispecific antibody, Purified as a fusion protein dimer) heavy: EVQLVESGGGLVQPGGSLRLSCAASGFSFTSSSVSWVRQAPGKGLEWVGLIYPYNGFNYYADSVKGRFTISADTSKNTAYLQMNSLRAEDTAVYYCARNALYGSGGYYAMDYWGQGTLVTVSSASTKGPSVFPLAPSSKSTSGGTAALGCLVKDYFPEPVTVSWNSGALTSGVHTFPAVIQSSGLYSLSSVVTVPSSSLGTQTYICNVNHKPSNTKVDKRVEPKSCDKTHTCPPCPAPEAAGGPSVFLFPPKPKDTLMISRTPEVTCVVVAVSHEDPEVKFNWYVDGVEVHNAKTKPREEQYGSTYRVVSVLTVLHQDWLNGKEYKCKVSNKALPAPIEKTISKAKGQPREPQVYTLPPSREEMTKNQVSLTCLVKGFYPSDIAVEWESNGQPENNYKTTPPVLDSDGSFFLYSKLTVDKSRWQQGNVFSCSVMHEALHNHYTQKSLSLSPGGGGGSGGGGSSDTGRPFVEMYSEIPEIIHMTEGRELVIPCRVTSPNITVTLKKFPLDTLIPDGKRIIWDSRKGFIISNATYKEIGLLTCEATVNGHLYKTNYLTHRQTNTIIDVVLSPSHGIELSVGEKLVLNCTARTELNVGIDFNWEYPSSKHQHKKLVNRDLKTQSGSEMKKFLSTLTIDGVTRSDQGLYTCAASSGLMTKKNSTFVRVHEK light: DIQMTQSPSSLSASVGDRVTITCRASQDVSTAVAWYQQKPGKAPKLLIYSASFLYSGVPSRFSGSGSGTDFTLTISSLQPEDFATYYCQQSYATLPTFEQGTKVEIKRTVAAPSVFIFPPSDEQLKSGTASVVCLLNNFYPREAKVQWKVDNALQSGNSQESVTEQDSKDSTYSLSSTLTLSKADYEKHKVYACEVTHQGLSSPVTKSFNRGEC | binds
PRO241 (bispecific antibody, IgG1, Purified as a fusion protein dimer) SDTGRPFVEMYSEIPEIIHMTEGRELVIPCRVTSPNITVTLKKFPLDTLIPDGKRIIWDSRKGFIISNATYKEIGLLTCEATVNGHLYKTNYLTHRQTNTIIDVVLSPSHGIELSVGEKLVLNCTARTELNVGIDFNWEYPSSKHQHKKLVNRDLKTQSGSEMKKFLSTLTIDGVTRSDQGLYTCAASSGLMTKKNSTFVRVHEKGGGGSDKTHTCPPCPAPEAAGGPSVFLFPPKPKDTLMISRTPEVTCVVVAVSHEDPEVKFNWYVDGVEVHNAKTKPREEQYGSTYRVVSVLTVLHQDWLNGKEYKCKVSNKALPAPIEKTISKAKGQPREPQVYTLPPSREEMTKNQVSLTCLVKGFYPSDIAVEWESNGQPENNYKTTPPVLDSDGSFFLYSKLTVDKSRWQQGNVFSCSVMHEALHNHYTQKSLSLSPGGGGGSGGGGSGGGGSEVQLVQSGAEVKKPGASVKVSCKASGYTFTGYYINWVRQAPGQGLEWMGIISPNQGTTGYAQKFQGRVTMTRDTSISTAYMELSSLRSEDTAVYYCARGNYDHLDYWGQGTLVTVSSGGGGSGGGGSGGGGSGGGGSDIQMTQSPSSLSASVGDRVTITCRASQGISNYLNWYQQKPGKAPKLLIYDASTLQSGVPSRFSGSGSGTDFTLTISSLQPEDFATYYCQQDWHTLPVTFGQGTKVEIK | binds
PRO236 (bispecific antibody, human IgG1, kappa, L234A L235A, N297G, Purified as a fusion protein dimer) heavy: EVQLVESGGGLVQPGGSLRLSCAASGFTFSSYWMTWVRQAPGKGLEWVSSIKIKPDGYAASVKGRFTISRDNSKNTLYLQMNSLRAEDTAVYYCARLFYQYFARMDYWGQGTLVTVSSASTKGPSVFPLAPSSKSTSGGTAALGCLVKDYFPEPVTVSWNSGALTSGVHTFPAVLQSSGLYSLSSVVTVPSSSLGTQTYICNVNHKPSNTKVDKRVEPKSCDKTHTCPPCPAPEAAGGPSVFLFPPKPKDTLMISRTPEVTCVVVAVSHEDPEVKFNWYVDGVEVHNAKTKPREEQYGSTYRVVSVLTVLHQDWLNGKEYKCKVSNKALPAPIEKTISKAKGQPREPQVYTLPPSREEMTKNQVSLTCLVKGFYPSDIAVEWESNGQPENNYKTTPPVLDSDGSFFLYSKLTVDKSRWQQGNVFSCSVMHEALHNHYTQKSLSLSPGGGGGSGGGGSSDTGRPFVEMYSEIPEIIHMTEGRELVIPCRVTSPNITVTLKKFPLDTLIPDGKRIIWDSRKGFIISNATYKEIGLLTCEATVNGHLYKTNYLTHRQTNTIIDVVLSPSHGIELSVGEKLVLNCTARTELNVGIDFNWEYPSSKHQHKKLVNRDLKTQSGSEMKKFLSTLTIDGVTRSDQGLYTCAASSGLMTKKNSTFVRVHEK light: not shown | binds
